Data as given in patent publication US20180037654A1.

Key:
[1] = target: human CTLA-4 (Y166G and Y183G) expressed on CHO-K1.hCTLA-4 cells (human) (UniProt P16410); assay: CELISA on CHO-K1.hCTLA-4 cells (Example 6)
[2] = target: human CTLA-4 (Y166G and Y183G) expressed on CHO-K1.hCTLA-4 cells (human) (UniProt P16410); assay: CELISA, blockade of biotinylated hCD80/Fc binding to CHO-K1.hCTLA-4 cells (Example 6)
[3] = target: human CTLA-4 (Y166G and Y183G) expressed on CHO-K1.hCTLA-4 cells (human) (UniProt P16410); assay: CELISA, blockade of biotinylated hCD86/Fc binding to CHO-K1.hCTLA-4 cells (Example 6)
[4] = target: human CTLA-4 (human) (UniProt P16410); assay: CELISA on CHO-K1 cells transiently transfected with human CTLA-4, panel Human
[5] = target: rhCTLA-4/Fc/6His (human); assay: BLI (Octet RED96), antibody amine-coupled to biosensor, rhCTLA-4/Fc 2.5-40 nM, 1:1 global fit
[6] = target: Mou-Hum-CTLA-4 (mouse/human chimera); assay: CELISA on CHO-K1 cells transiently transfected with Mou-Hum-CTLA-4, panel Mouse/Human
Sequence of Mou-Hum-CTLA-4 (mouse/human chimera) (chain, as listed by the source mutant limits assumed): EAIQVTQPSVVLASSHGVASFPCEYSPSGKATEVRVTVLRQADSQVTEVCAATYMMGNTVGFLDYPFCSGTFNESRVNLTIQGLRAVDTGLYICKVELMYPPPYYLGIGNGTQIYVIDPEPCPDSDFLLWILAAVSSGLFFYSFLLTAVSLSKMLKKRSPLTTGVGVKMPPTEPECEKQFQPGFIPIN

Sequence of CP-675,206 (antibody) (VH): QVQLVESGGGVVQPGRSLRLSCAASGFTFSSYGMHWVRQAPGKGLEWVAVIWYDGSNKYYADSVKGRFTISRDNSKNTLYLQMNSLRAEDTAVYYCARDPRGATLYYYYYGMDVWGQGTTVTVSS
Sequence of CP-675,206 (antibody) (VL): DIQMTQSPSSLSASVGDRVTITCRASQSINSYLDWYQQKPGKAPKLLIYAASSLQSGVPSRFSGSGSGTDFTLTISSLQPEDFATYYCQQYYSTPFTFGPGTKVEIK
Sequence of human CTLA-4 (Y166G and Y183G) expressed on CHO-K1.hCTLA-4 cells (human) (P16410 36-223 Y201G/Y218G limits assumed): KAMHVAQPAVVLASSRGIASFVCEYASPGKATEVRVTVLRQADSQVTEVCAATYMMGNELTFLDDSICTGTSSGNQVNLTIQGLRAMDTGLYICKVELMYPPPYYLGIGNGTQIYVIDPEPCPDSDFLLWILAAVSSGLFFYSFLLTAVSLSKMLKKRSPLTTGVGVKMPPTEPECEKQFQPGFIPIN
Sequence of rhCTLA-4/Fc/6His (human) (chain, as listed by the source limits assumed): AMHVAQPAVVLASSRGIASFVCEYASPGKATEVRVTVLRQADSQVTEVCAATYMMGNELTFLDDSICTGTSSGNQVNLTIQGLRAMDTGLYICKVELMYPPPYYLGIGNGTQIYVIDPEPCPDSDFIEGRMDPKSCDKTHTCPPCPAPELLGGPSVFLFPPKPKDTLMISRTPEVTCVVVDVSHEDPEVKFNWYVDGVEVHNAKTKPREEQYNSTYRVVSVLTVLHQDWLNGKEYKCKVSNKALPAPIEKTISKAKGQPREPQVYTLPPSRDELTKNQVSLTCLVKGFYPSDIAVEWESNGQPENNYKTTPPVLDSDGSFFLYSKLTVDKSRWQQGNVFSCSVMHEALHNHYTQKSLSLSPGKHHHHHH
Sequence of human CTLA-4 (human) (P16410 36-223 limits assumed): as the sequence (P16410 36-223 Y201G/Y218G limits assumed) above, with G166Y, G183Y counted along it

CP-675,206 (antibody)
EC50 [1]: 0.037 nM | IC50 [2]: 1.75 nM | IC50 [3]: 1.69 nM | EC50 (read off the curve) [4]: 0.05 nM | Kd [5]: 3.4 nM | EC50 (read off the curve) [6]: 0.04 nM
